# From US20240279318A1 (NANJING LEGEND BIOTECH, published 2024)
# Positions count from the first letter of the chain named.
# B1: AS170036 VL1VH1-56N98F (scFv)
# scFv: QSALTQPRSVSGSPGQSVTISCAGTSSDVGSENYVSWYQQHPGKAPKLMIYQVNKRASGVPDRFSGSKSGNTASLTISGLQAEDEADYYCASYRSSDFNIVFGGGTKLTVLGGGGSGGGGSGGGGSEVQLVESGGGLVQPGGSLRLSCAASGFTFSSYAMSWVRQAPGKGLEWVSTINSGTNSPYYADSVKGRFTISRDNSKNTLYLQMNSLRAEDTAVYYCAKNFFDGSWFLGPPAMDYWGQGTLVTVSSHHHHHH
# notes: also called 04-AS170036 VL1VH1-56N98F
# B2: AS170036 VL1VH1-56N98I (scFv)
# scFv: B1 scFv with F98I
# notes: also called 05-AS170036 VL1VH1-56N98I
# B3: AS170036 VL1VH1-56N98Q (scFv)
# scFv: B1 scFv with F98Q
# notes: also called 06-AS170036 VL1VH1-56N98Q
# B4: AS170036 VL1VH1-56N108A (scFv)
# scFv: B1 scFv with F98H, G234A
# notes: also called 19-AS170036 VL1VH1-56N108A
# B5: AS170036 VL1VH1-56N108D (scFv)
# scFv: B1 scFv with F98H, G234D
# notes: also called 20-AS170036 VL1VH1-56N108D
# B6: AS170036 VL1VH1-56N108S (scFv)
# scFv: B1 scFv with F98H, G234S
# notes: also called 21-AS170036 VL1VH1-56N108S
# B7: AS170036 VL1VH1-56Y98F (scFv)
# scFv: B1 scFv with N182Y
# notes: also called 01-AS170036 VL1VH1-56Y98F
# B8: AS170036 VL1VH1-56Y98I (scFv)
# scFv: B1 scFv with F98I, N182Y
# notes: also called 02-AS170036 VL1VH1-56Y98I
# B9: AS170036 VL1VH1-56Y98Q (scFv)
# scFv: B1 scFv with F98Q, N182Y
# notes: also called 03-AS170036 VL1VH1-56Y98Q
# B10: AS170036 VL1VH1-56Y108A (scFv)
# scFv: B1 scFv with F98H, N182Y, G234A
# notes: also called 16-AS170036 VL1VH1-56Y108A
# B11: AS170036 VL1VH1-56Y108D (scFv)
# scFv: B1 scFv with F98H, N182Y, G234D
# notes: also called 17-AS170036 VL1VH1-56Y108D
# B12: AS170036 VL1VH1-56Y108S (scFv)
# scFv: B1 scFv with F98H, N182Y, G234S
# notes: also called 18-AS170036 VL1VH1-56Y108S
# B13: AS170036 VL1VH1-57H98F (scFv)
# scFv: B1 scFv with N182G, S183H
# notes: also called 07-AS170036 VL1VH1-57H98F
# B14: AS170036 VL1VH1-57H98I (scFv)
# scFv: B1 scFv with F98I, N182G, S183H
# notes: also called 08-AS170036 VL1VH1-57H98I
# B15: AS170036 VL1VH1-57K98F108S (scFv)
# scFv: B1 scFv with N182G, S183K, G234S
# notes: also called 69-AS170036 VL1VH1-57K98F108S
# B16: AS170036 VL1VH1-57K98I108A (scFv)
# scFv: B1 scFv with F98I, N182G, S183K, G234A
# notes: also called 70-AS170036 VL1VH1-57K98I108A
# B17: AS170036 VL1VH1-57K98I108D (scFv)
# scFv: B1 scFv with F98I, N182G, S183K, G234D
# notes: also called 71-AS170036 VL1VH1-57K98I108D
# B18: AS170036 VL1VH1-57K98I108S (scFv)
# scFv: B1 scFv with F98I, N182G, S183K, G234S
# notes: also called 72-AS170036 VL1VH1-57K98I108S
# B19: AS170036 VL1VH1-57K98Q108A (scFv)
# scFv: B1 scFv with F98Q, N182G, S183K, G234A
# notes: also called 73-AS170036 VL1VH1-57K98Q108A
# B20: AS170036 VL1VH1-57K98Q108D (scFv)
# scFv: B1 scFv with F98Q, N182G, S183K, G234D
# notes: also called 74-AS170036 VL1VH1-57K98Q108D
# B21: AS170036 VL1VH1-57K98Q108S (scFv)
# scFv: B1 scFv with F98Q, N182G, S183K, G234S
# notes: also called 75-AS170036 VL1VH1-57K98Q108S
# B22: AS170036 VL1VH1-57M98F108A (scFv)
# scFv: B1 scFv with N182G, S183M, G234A
# notes: also called 76-AS170036 VL1VH1-57M98F108A
# B23: AS170036 VL1VH1-57M98F108D (scFv)
# scFv: B1 scFv with N182G, S183M, G234D
# notes: also called 77-AS170036 VL1VH1-57M98F108D
# B24: AS170036 VL1VH1-57M98F108S (scFv)
# scFv: B1 scFv with N182G, S183M, G234S
# notes: also called 78-AS170036 VL1VH1-57M98F108S
# B25: AS170036 VL1VH1-57M98I108A (scFv)
# scFv: B1 scFv with F98I, N182G, S183M, G234A
# notes: also called 79-AS170036 VL1VH1-57M98I108A
# B26: AS170036 VL1VH1-57M98I108D (scFv)
# scFv: B1 scFv with F98I, N182G, S183M, G234D
# notes: also called 80-AS170036 VL1VH1-57M98I108D
# B27: AS170036 VL1VH1-57M98Q108A (scFv)
# scFv: B1 scFv with F98Q, N182G, S183M, G234A
# notes: also called 82-AS170036 VL1VH1-57M98Q108A
# B28: AS170036 VL1VH1-57M98Q108D (scFv)
# scFv: B1 scFv with F98Q, N182G, S183M, G234D
# notes: also called 83-AS170036 VL1VH1-57M98Q108D
# B29: AS170036 VL1VH1-57M98Q108S (scFv)
# scFv: B1 scFv with F98Q, N182G, S183M, G234S
# notes: also called 84-AS170036 VL1VH1-57M98Q108S
# Target: T1, AFP158/HLA-A*02:01 complex (human)
# T1 construct: flowed as analyte in SPR
# Assay: SPR, fold vs AS170036 VL1VH1;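 note: crude scFv muteins immobilised on a sensor chip, peptide–MHC complex passed over at several concentrations, binding then buffer-driven dissociation, KD estimated from on- and off-rates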
# Method: (§1) The experiment was carried out as follows. The crude scFv protein were captured onto the sensorchip. Different concentrations (320, 160, 40 nM) of AFP158/HLA-A*02:01 complex flowed over the sensorchip surface, and were allowed to bind the antibody fragment for 100 s followed by injection of the running buffer to allow dissociation of the complex. On-rate (kd) and off-rate (kd) were calculated based on association and dissociation curve, and were used to estimate the equilibrium dissociation constant (KD).
# (§2) The crude scFv muteins were then subjected to SPR affinity measurement by the method mentioned above.
row,Binder,Affinity increase [fold]
1,B1,8.2
2,B2,10.7
3,B3,9.7
4,B4,14.9
5,B5,13.2
6,B6,7
7,B7,21
8,B8,33.5
9,B9,25.8
10,B10,48.1
11,B11,37.3
12,B12,19.2
13,B13,30.2
14,B14,12.6

# Target: T1, AFP158/HLA-A*02:01 complex
# Assay: SPR, fold vs AS170036 VL1VH1;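 note: crude scFv muteins immobilised on a sensor chip, peptide–MHC complex passed over at several concentrations, binding then buffer-driven dissociation, KD estimated from on- and off-rates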
# Remark: another data set of the same source
# Method: as §1, §2
row,Binder,Affinity increase [fold]
1,B15,27
2,B16,52.6
3,B17,38.7
4,B18,21
5,B19,80.4
6,B20,58.7
7,B21,33
8,B22,43.4
9,B23,36.2
10,B24,18
11,B25,28
12,B26,20.5
13,B27,43
14,B28,29.6
15,B29,16.7

# Target: T1, AFP158/HLA-A*02:01 complex
# Assay: SPR, crude scFv captured, pMHC analyte
# Method: as §1, §2
Binder,Kd [nM],koff [s⁻¹],kon [M⁻¹ s⁻¹]
B1,27,0.0097,360000
B2,21,0.0056,270000
B3,23,0.0058,250000
B4,15,0.0036,240000
B5,17,0.0046,270000
B6,32,0.0067,210000
B7,11,0.0023,220000
B8,6.7,0.0014,210000
B9,8.7,0.0016,190000
B10,4.7,0.00093,200000
B11,6,0.0012,200000
B12,12,0.0017,140000
B13,7.4,0.0018,240000
B14,18,0.0036,200000

# Target: T1, AFP158/HLA-A*02:01 complex
# Assay: SPR, crude scFv captured, pMHC analyte
# Remark: another data set of the same source
# Method: as §1, §2
Binder,Kd [nM],koff [s⁻¹],kon [M⁻¹ s⁻¹]
B15,8.3,0.0014,160000
B16,4.3,0.00082,190000
B17,5.8,0.0012,210000
B18,11,0.0013,120000
B19,2.8,0.00053,190000
B20,3.8,0.00077,200000
B21,6.8,0.00086,130000
B22,5.2,0.0013,260000
B23,6.2,0.0018,280000
B24,13,0.0024,190000
B25,8.1,0.0018,220000
B26,11,0.0029,260000
B27,5.2,0.0012,220000
B28,7.6,0.0018,240000
B29,14,0.0021,160000
